We go through 25 sequences from the DeepSol protein solubility set.

A short description of the series: soluble on expression in E. coli; label from the status in PepcDB or PDB records.
As to “SMGRRCQAQVSRRISFSASHRLYSKFLSDEENLKLFGKCNNPNGHGHNYKVVVTVHGEIDPATGMVMNLADLKKYMEEAIMQPLDHKNLDMDVPYFADVVSTTENVAVYIWDNLQKVLPVGVLYKVKVYETDNNIVVYKGE”, the “soluble on expression in E. coli” value was “soluble”.
With “SMNFYSAYQHGFVRVAACTHHTTIGDPAANAASVLDMARACHDDGAALAVFPELTLSGYSIEDVLLQDSLLDAVEDALLDLVTESADLLPVLVVGAPLRHRHRIYNTAVVIHRGAVLGVVPKSYLPTYREFYERRQMAPGDGERGTIRIGGADVAFGTDLLFAASDLPGFVLHVEICEDMFVPMPPSAEAALAGATVLANLSGSPITIGRAEDRRLLARSASARCLAAYVYAAAGEGESTTDLAWDGQTMIWENGALLAESERFPKGVRRSVADVDTELLRSERLRMGTFDDNRRHHRELTESFRRIDFALDPPAGDIGLLREVERFPFVPADPQRLQQDCYEAYNIQVSGLEQRLRALDYPKVVIGVSGGLDSTHALIVATHAMDREGRPRSDILAFALPGFATGEHTKNNAIKLARALGVTFSEIDIGDTARLMLHTIGHPYSVGEKVYDVTFENVQAGLRTDYLFRIANQRGGIVLGTGDLSELALGWSTYGVGDQMSHYNVNAGVPKTLIQHLIRWVISAGEFGEKVGEVLQSVLDTEITPELIPTGEEELQSSEAKVGPFALQDFSLFQVLRYGFRPSKIAFLAWHAWNDAERGNWPPGFPKSERPSYSLAEIRHWLQIFVQRFYSFSQFKRSALPNGPKVSHGGALSPRGDWRAPSDMSARIWLDQIDREVPKG” the entry was “soluble”; with “SMQEKYRLVVVGGGGVGKSALTIQFIQSYFVTDYDPTIEDSYTKQCVIDDRAARLDILDTAGQEEFGAMREQYMRTGEGFLLVFSVTDRGSFEEIYKFQRQILRVKDRDEFPMILIGNKADLDHQRQVTQEEGQQLARQLKVTYMEASAKIRMNVDQAFHELVRVIRKFQEQ”, “soluble”; with “SMRKFGVVVVGVGRAGSVRMRDLRNPHPSSAFLNLIGFVSRRELGSIDGVQQISLEDALSSQEVEVAYICSESSSHEDYIRQFLNAGKHVLVEYPMTLSLAAAQELWELAEQKGKVLHEEHVELLMEEFAFLKKEVVGKDLLKGSLLFTAGPLEEERFGFPAFSGISRLTWLVSLFGELSLVSATLEERKEDQYMKMTVCLETEKKSPLSWIEEKGPGLKRNRYLSFHFKSGSLENVPNVGVNKNIFLKDQNIFVQKLLGQFSEKELAAEKKRILHCLGLAEEIQKYCCSRK”, “soluble”.
For “SMTTLFSKIKEVTELAAVSGHEAPVRAYLREKLTPHVDEVVTDGLGGIFGIKHSEAVDAPRVLVASHMDEVGFMVSEIKPDGTFRVVEIGGWNPMVVSSQRFKLLTRDGHEIPVISGSVPPHLTRGKGGPTMPAIADIVFDGGFADKAEAESFGIRPGDTIVPDSSAILTANEKNIISKAWDNRYGVLMVSELAEALSGQKLGNELYLGSNVQEEVGLRGAHTSTTKFDPEVFLAVDCSPAGDVYGGQGKIGDGTLIRFYDPGHLLLPGMKDFLLTTAEEAGIKYQYYCGKGGTDAGAAHLKNGGVPSTTIGVCARYIHSHQTLYAMDDFLEAQAFLQALVKKLDRSTVDLIKHY” the value was “soluble”.
With “SMTYIPPGESLRDLIEQSQSSGSGSGLPLLVQRTIAKQIQMVKQIGKGRYGEVWMGKWRGEKVAVKVFFTTEEASWFRETEIYQTVLMRHENILGFIAADIKGTGSWTQLYLITDYHENGSLYDYLKSTTLDAKSMLKLAYSSVSGLCHLHTEIFSTQGKPAIAHRDLKSKNILVKKNGTCCIADLGLAVKFISDTNEVDIPPNTRVGTKRYMPPEVLDESLNRNHFQSYIMADMYSFGLILWEVARRCVSGGIVEEYQLPYHDLVPSDPSYEDMREIVCIKKLRPSFPNRWSSDECLRQMGKLMTECWAHNPASRLTALRVKKTLAKMSESQDIKL” the entry was “soluble”; with “SMVRLKKSFGQHLLVSEGVLKKIAEELNIEEGNTVVEVGGGTGNLTKVLLQHPLKKLYVIELDREMVENLKSIGDERLEVINEDASKFPFCSLGKELKVVGNLPYNVASLIIENTVYNKDCVPLAVFMVQKEVAEKLQGKKDTGWLSVFVRTFYDVNYVMTVPPRFFVPPPKVQSAVIKLVKNEKFPVKDLKNYKKFLTKIFQNRRKVLRKKIPEELLKEAGINPDARVEQLSLEDFFKLYRLIEDSGE”, “soluble”; with “SNAEQVRQAGIDDIGGILELIHPLEEQGILVRRSREQLEQEIGKFTIIEKDGLIIGCAALYPYSEERKAEMACVAIHPDYRDGNRGLLLLNYMKHRSKSENINQIFVLTTHSLHWFREQGFYEVGVDYLPGAKQGLYNFQRKSKILALDL”, “soluble”.
On to “SNAESAAPQVHLSILATTDIHANMMDYDYYSDKETADFGLARTAQLIQKHREQNPNTLLVDNGDLIQGNPLGEYAVKYQKDDIISGTKTHPIISVMNALKYDAGTLGNHEFNYGLDFLDGTIKGADFPIVNANVKTTSGENRYTPYVINEKTLIDENGNEQKVKVGYIGFVPPQIMTWDKKNLEGQVQVQDIVESANETIPKMKAEGADVIIALAHTGIEKQAQSSGAENAVFDLATKTKGIDAIISGHQHGLFPSAEYAGVAQFNVEKGTINGIPVVMPSSWGKYLGVIDLKLEKADGSWKVADSKGSIESIAGNVTSRNETVTNTIQQTHQNTLEYVRK”, for which the “soluble on expression in E. coli” value is given as “soluble”.
With “SNAKDVLGLTLLEKTLKERLNLKDAIIVSGDSDQSPWVKKEMGRAAVACMKKRFSGKNIVAVTGGTTIEAVAEMMTPDSKNRELLFVPARGGLGEDVKNQANTICAHMAEKASGTYRLLFVPGQLSQGAYSSIIEEPSVKEVLNTIKSASMLVHGIGEAKTMAQRRNTPLEDLKKIDDNDAVTEAFGYYFNADGEVVHKVHSVGMQLDDIDAIPDIIAVAGGSSKAEAIEAYFKKPRNTVLVTDEGAAKKLLRDE” the entry was “soluble”; with “SNALANRIENVVSQERTRKKFESLVSDSPDGIVHLTTNGTILSVNPSMAGRLGADPDTLVGQQLSAVMDSEAANQRLEAGKSAVENGTATRSEDAVGGRHYHNQYIPVDSHRKSDTFQLVSRDIT”, “soluble”; with “SNAMANFEDFLTLDLRIGTVTHAEEFKEARVPAIRLEIDFGELGMKQSSAQITKRYNPEDLIGQQIVAVVNFPPKRVAGFKSEVLVLGGVPEAGDVVLLQPNMELPNGTKIS”, “soluble”.
With “SNAMATNLIGLDTTQSQKLANALNNLLANYQVFYMNTRGYHWNIQGKEFFELHAKFEEIYTDLQLKIDELAERILTLSARPMHSFSGYLKAAQIKEHTDSIDGRSSMQGLVDGFSILLHQQRDILELAGETGDEGTSALMSDYIREQEKLVWMLNAWLK” the entry was “soluble”.
For “SNAMAWVVNKQSTQEELANRFRALVEANEILQIPGAHDAMAALVARNTGFLALYLSGAAYTASKGLPDLGIVTSTEVAERARDLVRATDLPVLVDIDTGFGGVLNVARTAVEMVEAKVAAVQIEDQQLPKKCGHLNGKKLVTTEELVQKIKAIKEVAPSLYIVARTDARGVEGLDEAIERANAYVKAGADAIFPEALQSEEEFRLFNSKVNAPLLANMTEFGKTPYYSAEEFANMGFQMVIYPVTSLRVAAKAYENVFTLIKETGSQKDALSNMQTRSELYETISYHDFEELDTGIAKTVLSEDQ” the value was “soluble”.
Consider “SNAMFHYTVDVSTGMNETIERLEESLKQEGFGVLWQFSVTEKLQEKGLDFSTPMVILEVCNPQEAARVLNENLLVGYFLPCKLVVYQENGTTKIGMPKPTMLVGMMNDPALKEIAADIEKRLAACLDRCR”, for which the “soluble on expression in E. coli” value is “soluble”.
For “SNAMIAKEFETFLLGQEETFLTPAKNLAVLIDTHNADHATLLLSQMTYTRVPVVTDEKQFVGTIGLRDIMAYQMEHDLSQEIMADTDIVHMTKTDVAVVSPDFTITEVLHKLVDESFLPVVDAEGIFQGIITRKSILKAVNALLHDFSKEYEIRCQ” the value was “soluble”; for “SNAMKAPELQIQQWFNSATDLTLADLRGKVIVIEAFQMLCPGCVMHGIPLAQKVRAAFPEDKVAVLGLHTVFEHHEAMTPISLKAFLHEYRIKFPVGVDQPGDGAMPRTMAAYQMRGTPSLLLIDKAGDLRAHHFGDVSELLLGAEIATLLGEAAPSV”, “soluble”.
For the sequence “SNAMNHSRESYDRLARELGGYRHPWARVLSGPDPELTFDLWLSRLLTPQTRVLEAGCGHGPDAARFGPQAARWAAYDFSPELLKLARANAPHADVYEWNGKGELPAGLGAPFGLIVSRRGPTSVILRLPELAAPDAHFLYVGPRLNVPEVPERLAAVGWDIVAEDHVSVLAHAPTWEDWQMRGEFMGKLARRADWDAEATVRGMPYREERHLVLARQLGVARKLGA”, the “soluble on expression in E. coli” value is “soluble”.
With “SNAMNVIRLKEDKFREALRLSEYAFQYKVDEDRLQQQITKMKESHEVYGIMEGENLAAKLHLIPFHIYIGKEKFKMGGVAGVATYPEYRRSGYVKELLQHSLQTMKKDGYTVSMLHPFAVSFYRKYGWELCANLLVCHMTKSDLVMKKQVNGTVKRFNKESHPEEVEKLYETFAELFSGMLVRNEKWWLQAVYDDLTLAIYYDENQTAAGYMLYKIENYKMTVEEFVPLHNEARNGLWNFICQHDSMIKDLEMTVSENEPLLYTLQEPRVKTEIKPYFMGRIVDVEQFLKQYELNWNNVQQEVILHITDSFAQWNNITVRIANHEITIIEEPIDKGIKLDINALSTILFGYRRPLELNELELISGSEEEIRAFESVVPVRKPFIYDFF”, the “soluble on expression in E. coli” value was “soluble”.
With “SNAMNVNQIVRIIPTLKANNRKLNETFYIETLGMKALLEESAFLSLGDQTGLEKLVLEEAPSMRTRKVEGRKKLARLIVKVENPLEIEGILSKTDSIHRLYKGQNGYAFEIFSPEDDLILIHAEDDIASLVEVGEKPEFQTDLASISLSKFEISMELHLPTDIESFLESSEIGASLDFIPAQGQDLTVDNTVTWDLSMLKFLVNELDIASLRQKFESTEYFIPKSEKFFLGKDRNNVELWFEEV” the entry was “soluble”; with “SNAMRVLTGLQPSGDLHIGNYFGAIKQMVDAQEKSQMFMFIANYHAMTSSQDGEKLKQNSLKAAAAFLSLGIDPQKSVFWLQSDVKEVMELYWILSQFTPMGLLERAHSYKDKVAKGLSASHGLFSYPVLMAADILLFDTRIVPVGKDQIQHVEIARDIALKVNNEWGEIFTLPEARVNEEVAVVVGTDGAKMSKSYQNTIDIFSSEKTLKKQISSIVTDSTALEDPKDHENCNIFKIAKLFLDESGQKELQIRYEKGGEGYGHFKIYLNELVNAYFKEAREKYNELLEKPSHLKEILDFGATKARKIAQEKMQKIYEKIGL”, “soluble”; with “SNAMSDKFHILLLNGPNLNLLGTREPEKYGYTTLAEIVSQLEIQAQGMDVALSHLQSNAEHALIDSIHQARGNTDFILINPAAFTHTSVALRDALLGVQIPFIEIHLSNVHAREPFRHHSYLSDIAVGVICGLGADGYNFALQAAVNRLSKSN”, “soluble”.
With “SNAMSEFIMNNLEQTARRWLEERGVTVEKIAELVYYLQSKYHPDLTMEECIENVNRVISKREVQNAILTGIQLDKLAEDGRLDEPLQSIIRRDEGLYGVDEILALSIVNVYGSIGFTNYGYIDKQKPGILQYLNDKSTGKCNTFLDDIVGAIAAAASSRLAHRAANAE” the entry was “soluble”; with “SNAMTDAVLELPAATFDLPLSLSGGTQTTLRAHAGHWLVIYFYPKDSTPGATTEGLDFNALLPEFDKAGAKILGVSRDSVKSHDNFCAKQGFAFPLVSDGDEALCRAFDVIKEKNMYGKQVLGIERSTFLLSPEGQVVQAWRKVKVAGHADAVLAALKAHAKQ”, “soluble”.
With “SNAMTEARKIPKPSFPYGSPGELNSFLPYLLTRITHIWSSELNQALASEKLPTPKLRLLSSLSAYGELTVGQLATLGVMEQSTTSRTVDQLVDEGLAARSISDADQRKRTVVLTRKGKKKLAEISPLINDFHAELVGNVDPDKLQTCIEVLGEILKGKTDY” the entry was “soluble”.
